The values that follow come from PMC8402870.

For orientation: stoichiometry N means a count of units in the complex or per binding partner.

Read-outs that look alike come from different tables or passages of the source.

Series [1] has as its target Pf6r, repressor of the Pf6 filamentous phage (wild type) (Pf6 filamentous phage (prophage of Pseudomonas aeruginosa PAO1)). The series is described as follows: SEC-MALS; Superdex 75 5/150 equilibrated with PBS; samples prepared in 20 mM HEPES pH 7.5, 300 mM NaCl, 10% glycerol, 2 mM TCEP; 50 uL loaded at 20 mg/mL; monomer to dimer. For orientation: Size exclusion chromatography separates by hydrodynamic size, large species first.

In series [2] the test system is T1, Pf4r (repressor C) (Pseudomonas aeruginosa PAO1 (Pf4 filamentous prophage)), ORF:4ff4b857.
T1 sequence: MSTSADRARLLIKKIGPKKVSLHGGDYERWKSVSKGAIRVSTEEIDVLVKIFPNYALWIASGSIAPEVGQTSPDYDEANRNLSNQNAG
The series is described as follows: EMSA. (Mobility shift assays separate free from complexed probe on a gel.)

For series [3], the target named is Pf4r, repressor C protein of the Pf4 filamentous phage (wild type) (Pf4 filamentous phage (prophage of Pseudomonas aeruginosa PAO1)). The series is described as follows: SEC-MALS; Superdex 75 5/150 equilibrated with PBS; samples prepared in 20 mM HEPES pH 7.5, 300 mM NaCl, 10% glycerol, 2 mM TCEP; 50 uL loaded at 20 mg/mL; monomer to dimer.

Consider “Pf6r, repressor of the Pf6 filamentous phage (wild type) (natural protein)”, for which the stoichiometry N in series [1] worked out at 2. As to “TTTTGGGGCCGATTTTCTTGATTAATAGTCTTGCTCTATCGGCTGACGTGCTCATATAGAAATTTATTCCGGTGAAATAGTTGCCCTGACGTGGCTTTGGGGAAATAATTTCTCCAGGGTAATTATTTCTCTA (double strand) [Ppf4r-G>T]”, in series [2], the binding entry is “binds more weakly”. In the case of “TTTTGGGGCCGATTTTCTTGATTAATAGTCTTGCTCTATCGGCTGACGTGCTCATATAGAAATTTATTCCGGTGAAATAGTTGCCCTGACGTGGCTTTGGGGAGATAATTTCTCCAGGGTAATTATTTCTCTA (double strand) [Ppf4r-doubleSNP]”, the binding result in series [2] is on record as “no binding”. On to “Pf4r, repressor C protein of the Pf4 filamentous phage (wild type) (natural protein)”, for which, in series [3], the stoichiometry N worked out at 2. “TTTTGGGGCCGATTTTCTTGATTAATAGTCTTGCTCTATCGGCTGACGTGCTCATATAGAAATTTATTCCGGGGAAATAGTTGCCCTGACGTGGCTTTGGGGAGATAATTTCTCCAGGGTAATTATTTCTCTA (double strand) [Ppf4r-A>G]”: in series [2], the binding result is “no binding”.

Turning to “TTTTGGGGCCGATTTTCTTGATTAATAGTCTTGCTCTATCGGCTGACGTGCTCATATAGAAATTTATTCCGGGGAAATAGTTGCCCTGACGTGGCTTTGGGGAAATAATTTCTCCAGGGTAATTATTTCTCTA (double strand) [Ppf4r]”, the binding entry in series [2] (EMSA: 10 mM Tris, 1 mM DTT, 2.5% glycerol, 5 ug/uL BSA, 0.05% NP-40, 80 mM KCl, 5 mM MgCl2, 2 mM EDTA, 10 fmol probe, 30 min, 30 C (protein diluted in TE pH …)) is “binds”.
